Source: the supplement of paper PMC9170038

Test system: MS2 coat protein
Experiment: apparent KD of MS2 coat protein; designed switch direction (-1 OFF switch, 1 ON switch): -1; higher = weaker reporter binding
How it was run: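 The buffer was Tris-HCl pH 7.5 with KCl, MgCl2, BSA, DTT, tRNA and Tween-20. In it, SNAP-549-labelled MS2 coat protein was titrated in doubling steps from 0.7 or 1.5 nM to 3 µM over chip-bound RNA switches transcribed by stalled E. coli RNA polymerase on Illumina chips. Apparent KD is the per-design median over clusters of curve fits to normalised fluorescence.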

[1] = Eterna round: R95, input ligand: FMN 200 uM
[2] = Eterna round: R95, input ligand: microRNA oligo, concentration not stated
[3] = Eterna round: R95, input ligand: none
[4] = input ligand: microRNA oligo, concentration not stated

Sequence	apparent KD of MS2 coat protein [1] [nM]	apparent KD of MS2 coat protein [2] [nM]	apparent KD of MS2 coat protein [3] [nM]	apparent KD of MS2 coat protein (input ligand: FMN 200 uM) [nM]	apparent KD of MS2 coat protein [4] [nM]	apparent KD of MS2 coat protein (input ligand: none) [nM]
UGGGUUACCCAUGGAAGUAACAUGAGGAUCACCCAUGUAGGGCAAGUUUUUUGUUCGUCAUAGGCCGUGGGUUUGGA [JR_SV3TOV1_Sub021] (puzzle: Sensor v3, turn-off variant 1)	30.4	56.8	32.4	–	–	–
UGGUGUUACGUAGGAUAUUGUCAACAGGCAGUAGGAUAUGCGAAAGCAGAAGGACCGCCAACAGGCGAGAAGGACGGGUUACCU [pwkr exNG2 2xF7 2xFMN.8] (Eterna round: R96, puzzle: Exclusion NG 2)	–	–	–	136	145	211
UGGUUGUCAGGAUAUACGGUUUUUAACUUUAGUUUUAUAUUGUAGAAGGGACAUGAGGAUCACCCAUGUUACGU [LRO-Excl4-11-Bluer Omei Mod] (Eterna round: R97, puzzle: Exclusion 4)	–	–	–	29.5	–	26.5
UGUAACCGAGGAUAUACAUGAGGAUCACCCAUGUAAUGUAGUAUAGUGUAUGUAAGGUGUAGAAGGUGGGAUGU (Eterna round: R97, puzzle: Exclusion 3)	–	–	–	48.4	–	74.7
UGUAAGCUAGGAUAUGCUUUGGGAAAGCAUUCCUUCGAUAAACUUGAGGAUCACCCAAGUAGAAGGAGCUUACC [salish99_ex2_r4_008] (Eterna round: R97, puzzle: Exclusion 2)	–	–	–	12.7	–	10.9
UGUACGAUGCGUGCUGACAUGCGUCGUGCAGCAGGUGAUACAUGAGGAUCACCCAUGUCCUCAUUUGCUCGUCUUAU [Mat - Sensor v3 - Turn-off var 2 - D23] (puzzle: Sensor v3, turn-off variant 2)	53.5	218	55.6	–	–	–
UGUACUAUGCGAGCUGACUUGCGUAGUGCAGCAGGUGUAACAUGAGGAUCACCCAUGUCCUCAUUUGCUCGUCUUAA [Mat - Sensor v3 - Turn-off var 2 - D10] (puzzle: Sensor v3, turn-off variant 2)	458	196	388	–	–	–
UGUCUGUCAGGAUAUCCAGAAGAGAAGAAAGUAAGAUGAGUGGAGAAGGGACAUGAGGAUCACCCAUGUAAUUA [My frist] (puzzle: Exclusion 4)	–	29.7	–	–	–	–
UGUGCGUAUGUGAGGAUAUGCUGGUCCUUGGAUCGGCAGAAGGCACAUGAGGAUCACCCAUGUGGUGUCGUACG [salish99_Bmod_ex4_079] (puzzle: Brourd's mod of Exclusion 4)	191	82.8	142	–	–	–
UGUGUACAUGAGGAUCACCCAUGUCAGGAUAUCUAGGCUCUCUCACUGACAACAGCCAAGAGAAGGGACGAGGU [EX1 B.7] (Eterna round: R97, puzzle: Exclusion 1)	–	–	–	36.3	–	29.5
UGUUGUCGCGCAGGAUAUGAGGAUCACCCAUAUACAGGAUAUGAAAAGAAGGGUCUGAGGAUUACCCAGAAGGGCGGGACAACU [pwkr exNG2 2xF5 2xFMN.26] (Eterna round: R96, puzzle: Exclusion NG 2)	–	–	–	386	59.1	88
UGUUGUCGCGCAGGAUAUGGCCAACAGGCCCUAGGAUAUCGGAAACGAGAAGGAGCGCCAACAGGCGAGAAGGGCGGGACAACU [pwkr exNG2 2xF7 2xFMN.18] (Eterna round: R96, puzzle: Exclusion NG 2)	–	–	–	85.9	912	995
UGUUGUCGCGUAGGAUAUGAGGAUCACCCAUAGAAGGAUAUCGAAAGAGAAGGUCUGAGGAUUACCCAGAAGGACGGGACAACU [pwkr exNG2 2xF5 2xFMN.14] (Eterna round: R96, puzzle: Exclusion NG 2)	–	–	–	682	160	151
UGUUGUCGCGUAGGAUAUGAGGAUCACCCAUAUAGAGGAUAUGAAAAGAAGGCUCUGAGGAUCACCCAGAAGGACGGGACAACU [pwkr exNG2 2xF5 2xFMN.24] (Eterna round: R96, puzzle: Exclusion NG 2)	–	–	–	1720	214	207
UGUUGUUACGCAGGAUAUGAGGAUCACCCAUAGUAGGAUAACGAAAGUGAAGGACUGAGGAUUACCCAGAAGGGCGGGUUAACA [pwkr exNG2 2xF5 2xFMN.3] (Eterna round: R96, puzzle: Exclusion NG 2)	–	–	–	1010	101	154
UGUUGUUACGCAGGAUAUGUAUGAGGAUCACCCAUAAGAGUUGAUGUACCAUGAGGAUCACCCAUGUAGAAGGGCGGGUUAACA [pwkr exNG2 2xF5 1xFMN.9] (Eterna round: R96, puzzle: Exclusion NG 2)	–	–	–	365	194	234

Sequence	apparent KD of MS2 coat protein [1] [nM]	apparent KD of MS2 coat protein [2] [nM]	apparent KD of MS2 coat protein [3] [nM]	apparent KD of MS2 coat protein (input ligand: FMN 200 uM) [nM]	apparent KD of MS2 coat protein [4] [nM]	apparent KD of MS2 coat protein (input ligand: none) [nM]
UGUUGUUCAGGAUAUGAUGUAUAAUACAUGAGGAUCACCCAUGUAGAUCCUGAAUUAACAUCAGAAGGGAAUGUUG [salish99_ex5_r4_102] (Eterna round: R97, puzzle: Exclusion 5)	–	–	–	19.4	–	15.2
UGUUGUUCAGGAUAUGAUGUAUAAUACAUGAGGAUCACCCAUGUAGAUCCUGAUUUGGCGUCAGAAGGGAAUGUUG [salish99_ex5_r4_106] (Eterna round: R97, puzzle: Exclusion 5)	–	–	–	41	–	33.2
UGUUGUUGUUUCCGUUCUUACAUGAGGAUCACCCAUGUUUCUUGUCGUGCUCGCGUUGCUCGUCAGACUACCUGUUG [salish99_TOv1_r3_065] (puzzle: Sensor v3, turn-off variant 1)	93.4	–	151	–	–	–
UUAAAUCAUGUAGGAUAUGCGUGGAGAAACUAUGCAGAAGGACAUGAGGAUCACCCAUGUGCUUCCGUCUGCGUACAGAUGGUA [Mat - Exclusion NG 1 - Mod of JL - D8] (Eterna round: R96, puzzle: Exclusion NG 1)	–	–	–	–	21.1	–
UUAAAUCAUGUAGGAUAUGCGUGGCAAAGCUAUGCAGAAGGACAUGAGGAUCACCCAUGUUCUAGCGUCUGAGAACAGAUGCUA [Mat - Exclusion NG 1 - Mod of JL - D78] (Eterna round: R96, puzzle: Exclusion NG 1)	–	–	–	566	24.2	47.7
UUAAAUCAUGUAGGAUAUGCGUGGCGAAGCUAUGCAGAAGGACAUGAGGAUCACCCAUGUGCUGCGGUCUGCGUACAGAUCGCU [JL ENG1 1.03] (Eterna round: R96, puzzle: Exclusion NG 1)	–	–	–	98.7	76.4	142
UUAAAUCAUGUAGGAUAUGCGUGGCGAAGCUAUGCAGAAGGACAUGAGGAUCACCCAUGUUCAUCCGUCUGCGUACAGAUGGAA [JL Eng1 1.08 mod 1] (Eterna round: R96, puzzle: Exclusion NG 1)	–	–	–	271	21.6	28.2
UUAACAUGCUGGUGAUCAUACAUGAGGAUCACCCAUGUAACAAGCUUUUUGCUCGUCUUAUAAGAUCACCAGCAUGU [Stov1/9-A1] (Eterna round: R97, puzzle: Sensor, turn-off variant 1)	–	–	–	14.7	–	12.2
UUAACGUCAGGAUAUGCUUAAUAUAUUAUAUUAUAAUAUAUACAUGAGGAUCACCCAUGUAGAAGGGACAUUAU [LRO-Excl2-02-Fireball XL5] (Eterna round: R97, puzzle: Exclusion 2)	–	–	–	34.1	–	52.1
UUAAUACAUGUAGGAUAUGCGUGGCGAAGCUAUGCAGAAGGACAUGAGGAUCACCCAUGUUCUAGCGUCCGCGUACGGAUGCAA [JL Eng1 1.21 mod 9] (Eterna round: R96, puzzle: Exclusion NG 1)	–	–	–	16.4	12	14.8
UUAAUAGCAGCGAGAUCCCACAUGAGGAUCACCCAUGUCGUAGACGAAAAGUCUACGUUAGCUCGUCUUAUAAAUAU [Winner reversed engineered 39] (Eterna round: R97, puzzle: Sensor, turn-off variant 1)	–	–	–	95.1	–	111
UUAAUGUGAGGAUAUCAGGUGUGAUAGAGUAAUGGUAAAUCUGAGAAGGCACAUGAGGAUCACCCAUGUUCUUC [Mat - Exclusion 4 - Mod of JL - D58] (puzzle: Exclusion 4)	–	21.5	–	–	–	–
UUAAUUAAUUGACUGCAAGAUCAACAUGAGGAUCACCCAUGUGAGGAUAUCAGCUCGUUUAGAGCUGAGAAGGCACAAGCAGUC [ExNG3/16-A2] (Eterna round: R96, puzzle: Exclusion NG 3)	–	–	–	53.6	16.7	17.6
UUAAUUAAUUUAAUAUAAGAUCACAUGAGGAUCACCCAUGUAUAGGAUAUCAGCUCGUUUAGAGCUGAGAAGGAUACAUAAUAU [ExNG3/2-B2] (Eterna round: R96, puzzle: Exclusion NG 3)	–	–	–	292	328	230
UUAAUUAGCUCGCUAGAUCCUCACAUGAGGAUCACCCAUGUGCAGGAUAUCAGCUCGUUUAGAGCUGAGAAGGGCACUGCGAGC [ExNG3/10-A2] (Eterna round: R96, puzzle: Exclusion NG 3)	–	–	–	147	120	114
UUACAAUGUCGCUUAUAAGCUUUUUGCUCGUCUUAUAUUACAUGAGGAUCACCCAUGUAGAUCAUGUGGCGUGACCU [JL ViennaUCT Maridi mod 8] (puzzle: Sensor v3, turn-off variant 2)	264	47.9	345	–	–	–
